The target in assay [1] is T1, MOG on mouse oligodendrocytes (mouse, UniProt Q61885 29-246).
T1 construct: whole, on cells; also called MOG on the cell membrane; MOG expressed by cells in the brain
T1 sequence (looked up): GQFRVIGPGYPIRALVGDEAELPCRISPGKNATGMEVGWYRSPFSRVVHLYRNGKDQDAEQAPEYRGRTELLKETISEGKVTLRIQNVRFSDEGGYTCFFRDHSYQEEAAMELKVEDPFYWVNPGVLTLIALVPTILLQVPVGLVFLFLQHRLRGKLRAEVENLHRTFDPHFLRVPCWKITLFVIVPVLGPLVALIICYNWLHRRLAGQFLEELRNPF
Briefly: flow cytometry on mouse brain cell suspension, O4-positive/CD45-negative oligodendrocyte fraction, 4 degrees C 60 min, detection with Alexa Fluor 647 anti-delta GK antibody; (a) MSA-free DPBS, (b) DPBS with 50 mg/mL MSA, (c) mouse plasma [a), (b), (c]. The protocol:
The binding ability of albumin switch molecules against the membrane-type antigens were examined. Specifically, the antibodies (10 micro g/mL) indicated below were incubated with mouse brain cell suspension (2×10⁵ cells/well), in mouse serum albumin (MSA)-free DPBS (Thermo Fisher Scientific), DPBS containing Recombinant MSA (Albumin Bioscience) at 50 mg/mL, or mouse plasma (6 weeks old, male C57BL/6J mouse) at 4 degrees C. for 60 minutes. The mouse brain cell suspension was prepared from mouse brain using Adult Brain Dissociation Kit (Miltenyi Biotec) and gentleMACS (Miltenyi Biotec). Antibodies used for the reaction were IC17, MOG//IC17, and ABD094(H/L)-MOG//IC17. After the reaction, the cells were washed once with DPBS. […] Lastly, the cells were suspended in DPBS and analyzed by FACSCantoII (BD). The fluorescence intensities of Alexa Fluor 647 in the MOG-expressing oligodendrocyte O4-positive/CD45-negative fractions were measured (Schroeter, C. B. et al., One Brain-All Cells: A Comprehensive Protocol to Isolate All Principal CNS-Resident Cell Types from Brain and Spinal Cord of Adult Healthy and EAE Mice. Cells 2021, 10(3), 651).

Another assay has as its target T2, Mouse MOG (R&D system) (mouse, UniProt Q61885 29-156, limits assumed).
T2 construct: also called mouse soluble MOG; soluble MOG
T2 sequence (looked up): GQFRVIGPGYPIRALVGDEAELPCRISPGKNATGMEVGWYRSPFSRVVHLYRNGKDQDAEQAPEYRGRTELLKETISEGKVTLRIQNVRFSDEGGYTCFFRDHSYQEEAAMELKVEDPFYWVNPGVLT
The experiment in a line: plasma MOG clearance in mice after IC17 0.2 mg/kg IV and MOG 0.021 mg/kg IV.

Assay [2] has as its target T3, IL6R on IL6R-CHO cells (CHO cells forced to express IL6R) (UniProt P08887 20-468, limits assumed).
T3 construct: whole, on cells; also called membrane-type IL6R; IL6R on the cell membrane
T3 sequence (looked up): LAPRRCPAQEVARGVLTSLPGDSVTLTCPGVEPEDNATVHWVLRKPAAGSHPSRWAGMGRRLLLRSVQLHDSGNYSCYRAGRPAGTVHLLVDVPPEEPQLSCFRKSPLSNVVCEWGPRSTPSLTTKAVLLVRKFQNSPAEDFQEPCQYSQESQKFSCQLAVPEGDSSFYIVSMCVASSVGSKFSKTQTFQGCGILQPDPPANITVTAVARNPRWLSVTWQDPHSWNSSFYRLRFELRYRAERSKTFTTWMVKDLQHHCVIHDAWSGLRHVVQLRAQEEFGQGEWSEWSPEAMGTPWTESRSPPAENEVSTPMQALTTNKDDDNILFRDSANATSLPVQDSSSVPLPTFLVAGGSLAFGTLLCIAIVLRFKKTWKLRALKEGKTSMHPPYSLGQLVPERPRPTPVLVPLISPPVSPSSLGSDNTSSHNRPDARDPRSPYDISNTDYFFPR
Briefly: flow cytometry on IL6R-CHO cells, 4 degrees C 60 min, detection with Alexa Fluor 647 anti-dGK antibody; (a) MSA-free medium, (b) medium with 50 mg/mL MSA, (c) mouse plasma [a), (b), (c]. As to the method:
Binding ability of albumin switch molecules against the membrane-type antigens were verified. Specifically, the antibodies (10 micro g/mL) indicated below were incubated with IL6R-CHO cells (Chiome Bioscience, 2×10⁵ cells/well) in mouse serum albumin (MSA)-free CHO-S-SFM II medium (Thermo Fisher Scientific), 50 mg/mL Recombinant MSA (Albumin Bioscience)-containing medium, or mouse plasma (6-week-old male C57BL/6J mouse) at 4 degrees C. for 60 minutes. Antibodies used for the reaction were IC17, H54//IC17, and ABD094(H/L)-H54//IC17. After the reaction, the cells were washed three times with PBS(−). Addition of Alexa Fluor 647-labeled anti-dGK antibody (10 micro g/mL) was followed by incubation at 4 degrees C. for 30 minutes. Lastly, the cells were suspended in PBS(−) and analyzed by FACSCantoII (BD).
(In general: A flow cytometer gives signals particle by particle.)

A further assay addresses T4, human soluble IL-6R (human, UniProt P08887 20-357, limits assumed).
T4 construct: Soluble form; also called sIL6R; Human IL-6R
T4 sequence (looked up): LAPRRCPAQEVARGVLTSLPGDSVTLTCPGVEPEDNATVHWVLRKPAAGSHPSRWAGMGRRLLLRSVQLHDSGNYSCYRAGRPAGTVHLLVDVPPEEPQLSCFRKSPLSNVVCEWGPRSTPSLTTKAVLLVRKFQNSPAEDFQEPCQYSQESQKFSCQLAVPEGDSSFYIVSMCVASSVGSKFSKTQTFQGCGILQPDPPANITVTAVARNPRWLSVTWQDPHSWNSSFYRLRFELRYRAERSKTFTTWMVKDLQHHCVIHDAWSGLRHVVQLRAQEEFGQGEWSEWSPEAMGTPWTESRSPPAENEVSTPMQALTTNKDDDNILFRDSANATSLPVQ
Briefly: Gyrolab xP complex assay in C57BL/6J mouse plasma: antibody 0.15 µg/mL and human soluble IL-6R 0.15 µg/mL (final), capture by biotinylated anti-human IL-6R antibody, detection with AF647-anti-delta GK; signal as % of H54//IC17. As to the method:
First, to bind the albumin-binding portion to albumin in the plasma, the anti-human IL-6R antibodies (albumin switch molecules) indicated in Example 2 were diluted to 0.6 micro g/mL using C57BL/6J mouse plasma, and then incubated at room temperature for one hour. Next, for binding of the anti-human IL-6R antibody to the target antigen, one equivalent of human soluble IL-6R diluted to 0.6 micro g/mL in mouse plasma was added to the antibody solutions, and then the solutions were incubated at room temperature for one hour.
To detect the antigen-antibody complexes, first, the anti-delta GK antibody (AF647-anti-delta GK) was labeled using an Alexa flour 647 labeling kit (A20186, Thermo Fisher Scientific) according to the attached protocols. […]
Measurement of antigen-antibody complexes was performed using Gyrolab xP. […] The amount of the captured complex was detected by the fluorescence signal of AF647 (Detect PMT 25%). The fluorescence signal of AF647 was analyzed by Gyro Evaluator (version 3.6.2.30, Gyros Protein Technologies).

B1: IC17 (antibody, human IgG1, kappa, V domains shown)
VH: QVQLQQSGPQLVRPGASVKISCKASGYSFTSYWMHWVNQRPGQGLEWIGMIDPSYSETRLNQKFKDKATLTVDKSSSTAYMQLSSPTSEDSAVYYCALYGNYFDYWGQGTTLTVSS
VL: DIQMTQSSSSFSVSLGDRVTITCKASEDIYNRLAWYQQKPGNAPRLLISGATSLETGVPSRFSGSGSGKDYTLSITSLQTEDVATYYCQQYWSTPYTFGGGTKLEVKR
notes: also called Anti-KLH antibody
As to B1, the binding result in assay [1] is reported as “no binding (tested: 10 µg/mL)”; with Mouse MOG (R&D system), “no binding”; in assay [2] it was “no binding (tested: 10 µg/mL)”; with human soluble IL-6R, “no binding (tested: 0.15 µg/mL)”.

These data come from patent US20260209363A1 (Chugai, published 2026).
